{"source": "the Human Domainome abundance scans (Beltran et al. 2025)", "parents": {"B1": {"name": "POU domain, class 4, transcription factor 1, residues 266 to 347; numbered along this chain, Q01851 (parent)", "chain": "RELEAFAERFKQRRIKLGVTQADVGSALANLKIPGVGSLSQSTICRFESLTLSHNNMIALKPILQAWLEEAEGAQREKMNKP"}}, "note": "± gives the uncertainty stated by the source."}
{"variants_of": "B1", "test": "abundance fitness (aPCA) (normalised: wild type 0, dead -1); higher = more abundant; growth selection in yeast, the domain comes from the species named", "conditions": "Homo sapiens"}
{"variant": "E48K", "abundance fitness": "-0.823 ± 0.091"}
{"variant": "G37C", "abundance fitness": "-0.058 ± 0.047"}
{"variant": "G37N", "abundance fitness": "0.035 ± 0.079"}
{"variant": "G37V", "abundance fitness": "-0.093 ± 0.028"}
{"variant": "G37T", "abundance fitness": "-0.076 ± 0.039"}
{"variant": "S42L", "abundance fitness": "-0.107 ± 0.045"}
{"variant": "S42C", "abundance fitness": "-0.071 ± 0.055"}
{"variant": "S42F", "abundance fitness": "-0.199 ± 0.098"}
{"variant": "G18T", "abundance fitness": "-0.91 ± 0.49"}
{"variant": "L17Y", "abundance fitness": "-0.33 ± 0.038"}
{"variant": "L17C", "abundance fitness": "-0.31 ± 0.041"}
{"variant": "L17K", "abundance fitness": "-0.62 ± 0.052"}
{"variant": "K11I", "abundance fitness": "-0.293 ± 0.15"}
{"variant": "K11W", "abundance fitness": "-0.707 ± 0.12"}
{"variant": "K11L", "abundance fitness": "-0.406 ± 0.074"}
{"variant": "K11M", "abundance fitness": "-0.117 ± 0.08"}
{"variant": "K11Y", "abundance fitness": "-0.642 ± 0.36"}
{"variant": "K11N", "abundance fitness": "-0.422 ± 0.22"}
{"variant": "R1Y", "abundance fitness": "-0.076 ± 0.085"}
{"variant": "R1E", "abundance fitness": "0.007 ± 0.052"}
{"variant": "R1G", "abundance fitness": "-0.05 ± 0.023"}
{"variant": "R1V", "abundance fitness": "-0.09 ± 0.038"}
{"variant": "S26K", "abundance fitness": "-0.029 ± 0.062"}
{"variant": "S26W", "abundance fitness": "0.024 ± 0.055"}
{"variant": "S26R", "abundance fitness": "-0.004 ± 0.039"}
{"variant": "S26H", "abundance fitness": "-0.005 ± 0.13"}
{"variant": "S26T", "abundance fitness": "-0.095 ± 0.06"}
{"variant": "S38P", "abundance fitness": "-0.112 ± 0.14"}
{"variant": "M79T", "abundance fitness": "-0.021 ± 0.032"}
{"variant": "M79Q", "abundance fitness": "-0.03 ± 0.033"}
{"variant": "M79P", "abundance fitness": "0.029 ± 0.033"}
{"variant": "E77V", "abundance fitness": "-0.005 ± 0.029"}
{"variant": "E77P", "abundance fitness": "-0.08 ± 0.048"}
{"variant": "E77T", "abundance fitness": "-0.064 ± 0.04"}
{"variant": "E77L", "abundance fitness": "-0.053 ± 0.031"}
{"variant": "E77A", "abundance fitness": "-0.044 ± 0.03"}
{"variant": "N55D", "abundance fitness": "-0.094 ± 0.1"}
{"variant": "N55W", "abundance fitness": "-0.023 ± 0.062"}
{"variant": "N55V", "abundance fitness": "-0.051 ± 0.043"}
{"variant": "N55K", "abundance fitness": "-0.038 ± 0.074"}
{"variant": "N55L", "abundance fitness": "-0.016 ± 0.052"}
{"variant": "E72N", "abundance fitness": "-0.35 ± 0.22"}
{"variant": "E72T", "abundance fitness": "-0.244 ± 0.085"}
{"variant": "E72H", "abundance fitness": "-0.456 ± 0.18"}
{"variant": "E72M", "abundance fitness": "-0.349 ± 0.074"}
{"variant": "I33R", "abundance fitness": "-0.217 ± 0.026"}
{"variant": "I33T", "abundance fitness": "-0.145 ± 0.039"}
{"variant": "I33G", "abundance fitness": "-0.282 ± 0.025"}
{"variant": "I33Q", "abundance fitness": "-0.295 ± 0.04"}
{"variant": "I33F", "abundance fitness": "-0.091 ± 0.048"}
{"variant": "I33C", "abundance fitness": "-0.005 ± 0.039"}
{"variant": "D23Q", "abundance fitness": "0.016 ± 0.063"}
{"variant": "D23F", "abundance fitness": "-0.208 ± 0.12"}
{"variant": "D23E", "abundance fitness": "0.027 ± 0.048"}
{"variant": "D23N", "abundance fitness": "-0.067 ± 0.14"}
{"variant": "D23R", "abundance fitness": "-0.173 ± 0.049"}
{"variant": "D23V", "abundance fitness": "-0.152 ± 0.05"}
{"variant": "K81T", "abundance fitness": "0.03 ± 0.098"}
{"variant": "K81P", "abundance fitness": "-0.075 ± 0.14"}
{"variant": "K81V", "abundance fitness": "-0.047 ± 0.059"}
{"variant": "L64G", "abundance fitness": "-0.672 ± 0.065"}
{"variant": "L64T", "abundance fitness": "-0.76 ± 0.15"}
{"variant": "F47Q", "abundance fitness": "-1 ± 0.34"}
{"variant": "F47P", "abundance fitness": "-0.717 ± 0.19"}
{"variant": "F47R", "abundance fitness": "-0.934 ± 0.12"}
{"variant": "F47T", "abundance fitness": "-0.822 ± 0.3"}
{"variant": "F47L", "abundance fitness": "-0.145 ± 0.063"}
{"variant": "I58Y", "abundance fitness": "-0.118 ± 0.23"}
{"variant": "I58H", "abundance fitness": "-0.169 ± 0.17"}
{"variant": "I58S", "abundance fitness": "-0.013 ± 0.064"}
{"variant": "I58L", "abundance fitness": "-0.031 ± 0.052"}
{"variant": "I58C", "abundance fitness": "-0.094 ± 0.093"}
{"variant": "I58N", "abundance fitness": "0.021 ± 0.1"}
{"variant": "Q65L", "abundance fitness": "-0.073 ± 0.026"}
{"variant": "Q65W", "abundance fitness": "-0.144 ± 0.029"}
{"variant": "Q65R", "abundance fitness": "-0.162 ± 0.023"}
{"variant": "Q65P", "abundance fitness": "-0.98 ± 0.079"}
{"variant": "Q65F", "abundance fitness": "-0.112 ± 0.041"}
{"variant": "Q65N", "abundance fitness": "-0.078 ± 0.044"}
{"variant": "Q65Y", "abundance fitness": "-0.075 ± 0.059"}
{"variant": "Q65K", "abundance fitness": "-0.049 ± 0.036"}
{"variant": "L39W", "abundance fitness": "-0.169 ± 0.046"}
{"variant": "L39R", "abundance fitness": "-0.487 ± 0.044"}
{"variant": "L39D", "abundance fitness": "-0.231 ± 0.09"}
{"variant": "L39V", "abundance fitness": "0.001 ± 0.037"}
{"variant": "L39S", "abundance fitness": "-0.33 ± 0.064"}
{"variant": "I44T", "abundance fitness": "-0.751 ± 0.15"}
{"variant": "H54L", "abundance fitness": "0.046 ± 0.04"}
{"variant": "H54W", "abundance fitness": "-0.014 ± 0.04"}
{"variant": "H54T", "abundance fitness": "0.08 ± 0.052"}
{"variant": "H54M", "abundance fitness": "0.044 ± 0.052"}
{"variant": "E4W", "abundance fitness": "-0.057 ± 0.049"}
{"variant": "E4I", "abundance fitness": "0.107 ± 0.08"}
{"variant": "E4P", "abundance fitness": "-0.361 ± 0.078"}
{"variant": "A74S", "abundance fitness": "0.005 ± 0.029"}
{"variant": "A74R", "abundance fitness": "-0.008 ± 0.024"}
{"variant": "A74F", "abundance fitness": "-0.035 ± 0.036"}
{"variant": "A74C", "abundance fitness": "0.012 ± 0.034"}
{"variant": "A74P", "abundance fitness": "-0.05 ± 0.034"}
{"variant": "S53F", "abundance fitness": "-0.903 ± 0.23"}
{"variant": "S53M", "abundance fitness": "-0.419 ± 0.076"}
{"variant": "S53T", "abundance fitness": "-0.174 ± 0.064"}
{"variant": "S53A", "abundance fitness": "-0.039 ± 0.043"}
{"variant": "Q21P", "abundance fitness": "-0.045 ± 0.065"}
{"variant": "Q21Y", "abundance fitness": "-0.07 ± 0.1"}
{"variant": "Q21K", "abundance fitness": "0.062 ± 0.092"}
{"variant": "Q21W", "abundance fitness": "-0.141 ± 0.063"}
{"variant": "Q21E", "abundance fitness": "-0.023 ± 0.049"}
{"variant": "Q21T", "abundance fitness": "-0.072 ± 0.055"}
{"variant": "E8H", "abundance fitness": "-0.164 ± 0.22"}
{"variant": "E8M", "abundance fitness": "-0.069 ± 0.089"}
{"variant": "E8N", "abundance fitness": "0.063 ± 0.091"}
{"variant": "T43Y", "abundance fitness": "-0.238 ± 0.21"}
{"variant": "T43W", "abundance fitness": "-0.131 ± 0.068"}
{"variant": "T43M", "abundance fitness": "0.037 ± 0.076"}
{"variant": "T43C", "abundance fitness": "-0.101 ± 0.072"}
{"variant": "T43K", "abundance fitness": "-0.286 ± 0.15"}
{"variant": "T43Q", "abundance fitness": "-0.113 ± 0.11"}
{"variant": "T43S", "abundance fitness": "-0.109 ± 0.061"}
{"variant": "K32Y", "abundance fitness": "-0.281 ± 0.14"}
{"variant": "K32T", "abundance fitness": "0.025 ± 0.076"}
{"variant": "V24L", "abundance fitness": "-0.062 ± 0.049"}
{"variant": "V24M", "abundance fitness": "-0.253 ± 0.079"}
{"variant": "V24R", "abundance fitness": "-0.745 ± 0.074"}
{"variant": "V24H", "abundance fitness": "-0.815 ± 0.37"}
{"variant": "V24D", "abundance fitness": "-0.66 ± 0.16"}
{"variant": "V24T", "abundance fitness": "-0.544 ± 0.096"}
{"variant": "V24A", "abundance fitness": "-0.241 ± 0.055"}
{"variant": "V24C", "abundance fitness": "-0.326 ± 0.1"}
{"variant": "W67T", "abundance fitness": "-0.805 ± 0.18"}
{"variant": "W67A", "abundance fitness": "-0.406 ± 0.069"}
{"variant": "W67K", "abundance fitness": "-0.606 ± 0.17"}
{"variant": "W67P", "abundance fitness": "-0.646 ± 0.11"}
{"variant": "W67V", "abundance fitness": "-0.412 ± 0.059"}
{"variant": "W67Y", "abundance fitness": "-0.175 ± 0.18"}
{"variant": "L52R", "abundance fitness": "-0.986 ± 0.084"}
{"variant": "L52I", "abundance fitness": "-0.496 ± 0.29"}
{"variant": "K78E", "abundance fitness": "0.035 ± 0.06"}
{"variant": "K78S", "abundance fitness": "-0.092 ± 0.059"}
{"variant": "K78I", "abundance fitness": "-0.026 ± 0.09"}
{"variant": "V36N", "abundance fitness": "-0.327 ± 0.19"}
{"variant": "V36K", "abundance fitness": "-0.138 ± 0.14"}
{"variant": "V36L", "abundance fitness": "0.003 ± 0.12"}
{"variant": "V36S", "abundance fitness": "-0.096 ± 0.24"}
{"variant": "V19M", "abundance fitness": "0.096 ± 0.067"}
{"variant": "V19K", "abundance fitness": "0.003 ± 0.061"}
{"variant": "L68Y", "abundance fitness": "-0.304 ± 0.17"}
{"variant": "R9M", "abundance fitness": "0.005 ± 0.12"}
{"variant": "R9N", "abundance fitness": "0.012 ± 0.12"}
{"variant": "R9Y", "abundance fitness": "-0.035 ± 0.19"}
{"variant": "F10W", "abundance fitness": "-0.237 ± 0.029"}
{"variant": "F10I", "abundance fitness": "-0.676 ± 0.065"}
{"variant": "F10R", "abundance fitness": "-0.996 ± 0.044"}
{"variant": "A59I", "abundance fitness": "-0.021 ± 0.12"}
{"variant": "A59V", "abundance fitness": "0.011 ± 0.04"}
{"variant": "G35F", "abundance fitness": "0.122 ± 0.37"}
{"variant": "G35R", "abundance fitness": "-0.056 ± 0.12"}
{"variant": "G35M", "abundance fitness": "-0.175 ± 0.22"}
{"variant": "G35L", "abundance fitness": "-0.303 ± 0.19"}
{"variant": "G35W", "abundance fitness": "-0.326 ± 0.28"}
{"variant": "A71K", "abundance fitness": "0.072 ± 0.073"}
{"variant": "A71T", "abundance fitness": "0.062 ± 0.086"}
{"variant": "A71D", "abundance fitness": "-0.572 ± 0.11"}
{"variant": "A71H", "abundance fitness": "-0.146 ± 0.12"}
{"variant": "A71R", "abundance fitness": "-0.051 ± 0.04"}
{"variant": "S49F", "abundance fitness": "-0.632 ± 0.065"}
{"variant": "S49W", "abundance fitness": "-0.541 ± 0.053"}
